PMC9482650, “Quantitative fragmentomics allow affinity mapping of interactomes” (Nature Communications, 2022)

Columns and labels:
Assay in all cases: holdup assay
Set-up in all cases: key: below the threshold = too weak to quantify, mostly under pKd 3.1 to 4
[1] = molecular target: PTPN3, P26045
[2] = molecular target: T1, MPP6, Q9NZW5
T1 sequence (Q9NZW5 125-219, limits assumed, looked up): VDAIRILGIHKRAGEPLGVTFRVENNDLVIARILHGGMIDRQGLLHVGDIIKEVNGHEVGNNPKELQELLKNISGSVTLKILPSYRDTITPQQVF

[3] = molecular target: T2, TX1BP3, O14907
T2 sequence (O14907 10-122, limits assumed, looked up): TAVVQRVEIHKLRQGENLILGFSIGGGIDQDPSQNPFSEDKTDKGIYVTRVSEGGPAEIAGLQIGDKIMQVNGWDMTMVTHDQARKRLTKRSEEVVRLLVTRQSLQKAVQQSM

[4] = molecular target: T3, HTRA4, P83105
T3 sequence (P83105 378-476, limits assumed, looked up): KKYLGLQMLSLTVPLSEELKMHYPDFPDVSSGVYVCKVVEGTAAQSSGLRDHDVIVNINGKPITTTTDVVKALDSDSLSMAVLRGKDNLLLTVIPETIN

[5] = molecular target: DLG4_3, P78352
[6] = molecular target: GRID2IP_2, A4D2P6
[7] = molecular target: MAGI2_6, Q86UL8
[8] = molecular target: AHNAK1, Q09666
[9] = molecular target: Inadl_4, Q8NI35
[10] = molecular target: T4, PTPN13_1, Q12923
T4 sequence (Q12923 1088-1188, limits assumed, looked up): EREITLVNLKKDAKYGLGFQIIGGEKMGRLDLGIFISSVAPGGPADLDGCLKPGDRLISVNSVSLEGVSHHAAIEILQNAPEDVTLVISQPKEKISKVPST

[11] = molecular target: T5, RADIL, Q96JH8
T5 sequence (Q96JH8 971-1071, limits assumed, looked up): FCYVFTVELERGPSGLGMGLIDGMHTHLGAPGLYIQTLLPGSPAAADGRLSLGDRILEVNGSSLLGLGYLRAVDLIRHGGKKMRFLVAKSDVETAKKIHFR

[12] = molecular target: TJP1_2, Q07157
[13] = molecular target: IL16_1, Q14005
[14] = molecular target: T6, NHERF3_1, Q5T2W1
T6 sequence (Q5T2W1 4-100, limits assumed, looked up): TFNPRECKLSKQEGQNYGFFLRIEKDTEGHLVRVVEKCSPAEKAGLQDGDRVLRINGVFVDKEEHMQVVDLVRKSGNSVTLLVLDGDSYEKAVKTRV

[15] = molecular target: Inadl_2, Q8NI35
[16] = molecular target: T7, PDZD7_3, Q9H5P4
T7 sequence (Q9H5P4 857-944, limits assumed, looked up): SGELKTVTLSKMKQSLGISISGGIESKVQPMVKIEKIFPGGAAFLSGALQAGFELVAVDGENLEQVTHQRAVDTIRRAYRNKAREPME

[17] = molecular target: LNX1_1, Q8TBB1
[18] = molecular target: T8, SIPA1L2, Q9P2F8
T8 sequence (Q9P2F8 945-1036, limits assumed, looked up): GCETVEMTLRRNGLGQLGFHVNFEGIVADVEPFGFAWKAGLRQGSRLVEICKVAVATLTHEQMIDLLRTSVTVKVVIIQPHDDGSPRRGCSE

[19] = molecular target: T9, ARHGAP21, Q5T5U3
T9 sequence (Q5T5U3 45-169, limits assumed, looked up): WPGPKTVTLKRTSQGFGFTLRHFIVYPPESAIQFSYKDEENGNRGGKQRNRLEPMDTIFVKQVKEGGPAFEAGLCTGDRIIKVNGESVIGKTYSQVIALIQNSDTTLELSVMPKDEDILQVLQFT

[20] = molecular target: GRIP2_7, Q9C0E4
[21] = molecular target: GRID2IP_1, A4D2P6
[22] = molecular target: T10, SNTG1, Q9NSN8
T10 sequence (Q9NSN8 52-150, limits assumed, looked up): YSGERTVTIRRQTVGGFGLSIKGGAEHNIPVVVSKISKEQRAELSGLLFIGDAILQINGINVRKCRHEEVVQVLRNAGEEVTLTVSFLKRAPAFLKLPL

[23] = molecular target: T11, ARHGEF11, O15085
T11 sequence (O15085 42-136, limits assumed, looked up): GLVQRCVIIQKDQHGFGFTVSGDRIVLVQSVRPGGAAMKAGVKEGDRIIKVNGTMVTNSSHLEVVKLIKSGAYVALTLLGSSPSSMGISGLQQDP

[24] = molecular target: MAGI1_2, Q96QZ7
[25] = molecular target: FRMPD2_3, Q68DX3
[26] = molecular target: MAGI3_2, Q5TCQ9
[27] = plain residues with an end cap or a label only (N-terminal biotin on a linker: ttds)
[28] = plain residues with an end cap or a label only (N-terminal biotin on a linker: gsgsgs; C-terminal amide)

Chain of GRID2IP_2, A4D2P6 (A4D2P6 272-370): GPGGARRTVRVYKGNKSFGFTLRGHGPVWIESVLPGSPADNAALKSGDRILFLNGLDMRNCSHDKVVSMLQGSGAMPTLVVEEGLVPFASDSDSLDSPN
Chain of MAGI2_6, Q86UL8 (Q86UL8 1141-1229): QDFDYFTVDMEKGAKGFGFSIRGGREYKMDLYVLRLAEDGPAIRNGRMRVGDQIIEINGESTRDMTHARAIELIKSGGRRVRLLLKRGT
Chain of GRIP2_7, Q9C0E4 (Q9C0E4 934-1023): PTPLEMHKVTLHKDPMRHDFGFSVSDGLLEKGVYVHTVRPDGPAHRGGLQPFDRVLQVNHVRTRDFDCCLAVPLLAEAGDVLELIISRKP
Chain of LNX1_1, Q8TBB1 (Q8TBB1 261-371): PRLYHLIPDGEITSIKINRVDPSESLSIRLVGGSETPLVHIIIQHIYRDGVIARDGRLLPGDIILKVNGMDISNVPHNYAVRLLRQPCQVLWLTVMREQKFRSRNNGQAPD
Chain of DLG4_3, P78352 (P78352 306-403): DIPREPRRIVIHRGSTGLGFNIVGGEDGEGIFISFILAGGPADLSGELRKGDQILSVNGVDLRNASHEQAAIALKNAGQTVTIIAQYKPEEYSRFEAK
Chain of AHNAK1, Q09666 (Q09666 4-100): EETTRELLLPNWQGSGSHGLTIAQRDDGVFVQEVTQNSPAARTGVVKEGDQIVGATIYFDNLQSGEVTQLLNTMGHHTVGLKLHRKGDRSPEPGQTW
Chain of IL16_1, Q14005 (Q14005 210-306): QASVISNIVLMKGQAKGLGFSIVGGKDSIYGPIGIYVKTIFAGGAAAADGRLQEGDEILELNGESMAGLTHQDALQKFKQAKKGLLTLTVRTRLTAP
Chain of MAGI1_2, Q96QZ7 (Q96QZ7 456-580): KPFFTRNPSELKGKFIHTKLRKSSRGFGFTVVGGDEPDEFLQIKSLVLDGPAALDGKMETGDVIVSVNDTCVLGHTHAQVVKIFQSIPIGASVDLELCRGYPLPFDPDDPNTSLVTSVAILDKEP
Chain of MAGI3_2, Q5TCQ9 (Q5TCQ9 398-503): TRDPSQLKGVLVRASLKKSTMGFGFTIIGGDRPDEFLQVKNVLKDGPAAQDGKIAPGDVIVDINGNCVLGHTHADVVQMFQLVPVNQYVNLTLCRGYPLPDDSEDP
Chain of TJP1_2, Q07157 (Q07157 181-274): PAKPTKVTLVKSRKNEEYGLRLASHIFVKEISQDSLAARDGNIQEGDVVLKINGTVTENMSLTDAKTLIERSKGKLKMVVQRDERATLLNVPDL
Chain of Inadl_4, Q8NI35 (Q8NI35 547-651): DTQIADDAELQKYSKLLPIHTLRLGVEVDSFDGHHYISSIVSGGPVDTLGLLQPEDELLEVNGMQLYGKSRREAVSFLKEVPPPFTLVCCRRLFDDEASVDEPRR
Chain of GRID2IP_1, A4D2P6 (A4D2P6 1-87): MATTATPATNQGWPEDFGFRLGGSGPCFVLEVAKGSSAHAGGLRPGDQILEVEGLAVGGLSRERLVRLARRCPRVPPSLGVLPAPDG
Chain of FRMPD2_3, Q68DX3 (Q68DX3 1073-1166): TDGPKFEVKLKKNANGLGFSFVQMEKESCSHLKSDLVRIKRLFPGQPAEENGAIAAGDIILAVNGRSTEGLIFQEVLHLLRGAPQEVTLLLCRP
Chain of PTPN3, P26045 (P26045 505-587): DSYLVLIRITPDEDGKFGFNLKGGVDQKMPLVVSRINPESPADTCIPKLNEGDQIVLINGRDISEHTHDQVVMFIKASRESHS
Chain of Inadl_2, Q8NI35 (Q8NI35 238-335): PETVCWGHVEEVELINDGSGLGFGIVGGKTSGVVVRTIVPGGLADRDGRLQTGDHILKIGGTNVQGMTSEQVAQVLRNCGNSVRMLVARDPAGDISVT

Binder: IYVPEAQTRL [DLGAP4, Q9Y2H0]
- pKd [1, 27]: 4.38
- pKd [2, 27]: below the threshold
- pKd [3, 27]: below the threshold
- pKd [4, 27]: below the threshold
- pKd [5, 27]: below the threshold
- pKd [6, 27]: 4.08
- pKd [7, 27]: below the threshold
- pKd [8, 27]: below the threshold
- pKd [9, 27]: below the threshold
- pKd [10, 27]: below the threshold
- pKd [11, 27]: below the threshold
- pKd [12, 27]: below the threshold
- pKd [13, 27]: below the threshold
- pKd [14, 27]: 5.25
- pKd [15, 27]: below the threshold
- pKd [16, 27]: 4.31
- pKd [17, 27]: below the threshold
- pKd [18, 27]: below the threshold
- pKd [19, 27]: below the threshold
- pKd [20, 27]: below the threshold
- pKd [21, 27]: below the threshold
- pKd [22, 27]: below the threshold
- pKd [23, 27]: 3.7
- pKd [24, 27]: below the threshold
- pKd [25, 27]: below the threshold
- pKd [26, 27]: below the threshold

Binder: TVASEKESVM [SLC1A5, Q15758]
- pKd [1, 27]: 4.94
- pKd [2, 27]: below the threshold
- pKd [3, 27]: 3.69
- pKd [4, 27]: below the threshold
- pKd [5, 27]: below the threshold
- pKd [6, 27]: 3.7
- pKd [7, 27]: below the threshold
- pKd [8, 27]: below the threshold
- pKd [9, 27]: below the threshold
- pKd [10, 27]: below the threshold
- pKd [11, 27]: below the threshold
- pKd [12, 27]: below the threshold
- pKd [13, 27]: below the threshold
- pKd [14, 27]: 4.42
- pKd [15, 27]: below the threshold
- pKd [16, 27]: 3.71
- pKd [17, 27]: below the threshold
- pKd [18, 27]: below the threshold
- pKd [19, 27]: below the threshold
- pKd [20, 27]: below the threshold
- pKd [21, 27]: below the threshold
- pKd [22, 27]: below the threshold
- pKd [23, 27]: 3.56
- pKd [24, 27]: below the threshold
- pKd [25, 27]: below the threshold
- pKd [26, 27]: below the threshold

Binder: SSRTRRETQL [HPV16-E6, P03126]
- pKd [1, 27]: 5.06
- pKd [2, 27]: 3.58
- pKd [3, 27]: 4.87
- pKd [4, 27]: below the threshold
- pKd [5, 27]: 5.06
- pKd [6, 27]: 3.86
- pKd [7, 27]: 3.61
- pKd [8, 27]: below the threshold
- pKd [9, 27]: below the threshold
- pKd [10, 27]: 3.56
- pKd [11, 27]: 3.65
- pKd [12, 27]: below the threshold
- pKd [13, 27]: below the threshold
- pKd [14, 27]: 5.62
- pKd [15, 27]: below the threshold
- pKd [16, 27]: 4.68
- pKd [17, 27]: 3.51
- pKd [18, 27]: below the threshold
- pKd [19, 27]: below the threshold
- pKd [20, 27]: below the threshold
- pKd [21, 27]: below the threshold
- pKd [22, 27]: 3.8
- pKd [23, 27]: 4.15
- pKd [24, 27]: 5.91
- pKd [25, 27]: below the threshold
- pKd [26, 27]: 5.31

Binder: PKTPPTDTSV [KIR3DL3, Q8N743]
- pKd [1, 27]: 4.48
- pKd [2, 27]: below the threshold
- pKd [3, 27]: 3.67
- pKd [4, 27]: below the threshold
- pKd [5, 27]: below the threshold
- pKd [6, 27]: below the threshold
- pKd [7, 27]: 3.97
- pKd [8, 27]: below the threshold
- pKd [9, 27]: below the threshold
- pKd [10, 27]: below the threshold
- pKd [11, 27]: below the threshold
- pKd [12, 27]: below the threshold
- pKd [13, 27]: below the threshold
- pKd [14, 27]: below the threshold
- pKd [15, 27]: below the threshold
- pKd [16, 27]: 3.61
- pKd [17, 27]: below the threshold
- pKd [18, 27]: below the threshold
- pKd [19, 27]: 3.61
- pKd [20, 27]: below the threshold
- pKd [21, 27]: below the threshold
- pKd [22, 27]: below the threshold
- pKd [23, 27]: below the threshold
- pKd [24, 27]: below the threshold
- pKd [25, 27]: below the threshold
- pKd [26, 27]: 3.71

Binder: TLSLTDSSVDGIPPYR [AXIN1_int, O15169]
- pKd [1, 28]: 3.83
- pKd [2, 28]: 3.93
- pKd [3, 28]: 3.78
- pKd [4, 28]: below the threshold
- pKd [5, 28]: below the threshold
- pKd [6, 28]: below the threshold
- pKd [7, 28]: below the threshold
- pKd [8, 28]: below the threshold
- pKd [9, 28]: below the threshold
- pKd [10, 28]: 3.5
- pKd [11, 28]: below the threshold
- pKd [12, 28]: below the threshold
- pKd [13, 28]: 3.48
- pKd [14, 28]: below the threshold
- pKd [15, 28]: below the threshold
- pKd [16, 28]: below the threshold
- pKd [17, 28]: below the threshold
- pKd [18, 28]: below the threshold
- pKd [19, 28]: below the threshold
- pKd [20, 28]: below the threshold
- pKd [21, 28]: below the threshold
- pKd [22, 28]: below the threshold
- pKd [23, 28]: below the threshold
- pKd [24, 28]: below the threshold
- pKd [25, 28]: below the threshold
- pKd [26, 28]: below the threshold
